Literature values, collected in PMC4884208.

Columns and labels:
Experiment in all cases: UV-vis
Tyr113 = test system: Tyr113
Tyr117 = test system: Tyr117
Tyr22 = test system: Tyr22
Tyr25 = test system: Tyr25
Tyr28 = test system: Tyr28
Tyr52 = test system: Tyr52
Tyr73 = test system: Tyr73
Tyr75 = test system: Tyr75
Tyr103 = Tyr103 (UniProt position 122, KVGINYWLAHK); conditions: 25.0 C, 0.5 M Gdn-HCl
Tyr18 = Tyr18 (UniProt position 37, KDLKGYGGVSL); conditions: 25.0 C, 0.5 M Gdn-HCl
Tyr36 = Tyr36 (UniProt position 55, FHTSGYDTQAI); conditions: 25.0 C, 0.5 M Gdn-HCl
Tyr50 = Tyr50 (UniProt position 69, NDSTEYGLFQI); conditions: 25.0 C, 0.5 M Gdn-HCl

| Substance | pKa (Tyr113) | pKa (Tyr117) | pKa (Tyr22) | pKa (Tyr25) | pKa (Tyr28) | pKa (Tyr52) | pKa (Tyr73) | pKa (Tyr75) | pKa (Tyr103; alkaline-denatured (D) state) | pKa (Tyr103; native (N) state) | pKa (Tyr18; alkaline-denatured (D) state) | pKa (Tyr18; native (N) state) | pKa (Tyr36; alkaline-denatured (D) state) | pKa (Tyr36; native (N) state) | pKa (Tyr50; alkaline-denatured (D) state) | pKa (Tyr50; native (N) state) |
| --- | --- | --- | --- | --- | --- | --- | --- | --- | --- | --- | --- | --- | --- | --- | --- | --- |
| Vipoxin neurotoxic phospholipase A2 (basic PLA2 subunit of vipoxin) (Vipera ammodytes meridionalis (inferred; organism not stated in the article)) | 12.17 | 10.45 | 10.45 | 13.23 | 12.17 | 12.17 | 13.23 | 10.45 | – | – | – | – | – | – | – | – |
| alpha-lactalbumin (Bos taurus) | – | – | – | – | – | – | – | – | 10.3 | 10.5 | 10.3 | 11.8 | 10.3 | 11.8 | 10.3 | 12.7 |
